Test results taken from article PMC9452301 (Nature, 2022).

Molecular target: protein phosphatase 1 catalytic subunit, γ-isoform (PPP1CCγ) (human, UniProt P36873 1-323)
Test: cell-based or functional assay

Chain of protein phosphatase 1 catalytic subunit, γ-isoform (PPP1CCγ) (P36873 whole entry, canonical isoform): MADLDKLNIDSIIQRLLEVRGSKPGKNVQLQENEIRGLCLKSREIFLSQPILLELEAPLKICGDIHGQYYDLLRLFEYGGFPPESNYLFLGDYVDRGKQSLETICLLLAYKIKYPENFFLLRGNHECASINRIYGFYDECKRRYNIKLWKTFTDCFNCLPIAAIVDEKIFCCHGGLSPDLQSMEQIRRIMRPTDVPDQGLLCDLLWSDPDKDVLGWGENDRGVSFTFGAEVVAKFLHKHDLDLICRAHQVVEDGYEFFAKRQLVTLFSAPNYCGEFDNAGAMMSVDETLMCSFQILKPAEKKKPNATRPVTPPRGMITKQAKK

Kd^app of SHOC2 from peptide dephosphorylation (25 nM PP1C, 1 µM MRAS(GCP)): ~40 fold weaker than full-length SHOC2
B1: N-terminally truncated SHOC2 (SHOC2-ΔN; residues 91–582) (domain or fragment)
chain: IKELNKCREENSMRLDLSKRSIHILPSSIKELTQLTELYLYSNKLQSLPAEVGCLVNLMTLALSENSLTSLPDSLDNLKKLRMLDLRHNKLREIPSVVYRLDSLTTLYLRFNRITTVEKDIKNLSKLSMLSIRENKIKQLPAEIGELCNLITLDVAHNQLEHLPKEIGNCTQITNLDLQHNELLDLPDTIGNLSSLSRLGLRYNRLSAIPRSLAKCSALEELNLENNNISTLPESLLSSLVKLNSLTLARNCFQLYPVGGPSQFSTIYSLNMEHNRINKIPFGIFSRAKVLSKLNMKDNQLTSLPLDFGTWTSMVELNLATNQLTKIPEDVSGLVSLEVLILSNNLLKKLPHGLGNLRKLRELDLEENKLESLPNEIAYLKDLQKLVLTNNQLTTLPRGIGHLTNLTHLGLGENLLTHLPEEIGTLENLEELYLNDNPNLHSLPFELALCSKLSIMSIENCPLSHLPPQIVAGGPSFIIQFLKMQGPYRAMV
